Columns and labels:
[1] = target: T1, BRD3 SBC motif-deleted mutant (human, UniProt Q15059 1-726, limits assumed); assay: co-IP with anti-FLAG antibody, 293T cells
T1 construct: Deletion mutant; also called FLAG-BRD3 mutant; not shown: FLAG tag

[2] = target: T2, BRD4 SBC motif-deleted mutant (human, UniProt O60885 1-1362, limits assumed); assay: co-IP with anti-FLAG antibody, 293T cells
T2 construct: Deletion mutant; also called FLAG-BRD4 mutant; not shown: FLAG tag

[3] = target: T3, BRD2 SBC motif-deleted mutant (human, UniProt P25440 1-801, limits assumed); assay: co-IP with anti-FLAG antibody, 293T cells
T3 construct: Deletion mutant; also called FLAG-BRD2 mutant; not shown: FLAG tag

BRD2 = target: T4, BRD2 (human, UniProt P25440 1-801); assay: co-immunoprecipitation, 293T (ectopic) and LNCaP (endogenous) cells
T4 construct: also called bromodomain containing 2; FLAG-BRD2
Protocol: (§1) To immunoprecipitate the ectopically expressed FLAG-tagged proteins, transfected cells were lysed 24 hours post-transfection in BC100 buffer. The whole-cell lysates were immunoprecipitated with the monoclonal anti-FLAG antibody-conjugated M2 agarose beads (Sigma-Aldrich) at 4° C. overnight. After three washes with lysis buffer, followed by two washes with BC100 buffer, the bound proteins were eluted using FLAG-Peptide (Sigma-Aldrich) prepared in BC100 for 3 hours at 4° C. The eluted protein sample was resolved by SDS-PAGE. To immunoprecipitate the endogenous proteins, cells were lysed with 1× cell lysis buffer (Cell Signaling Technology), and the lysate was centrifuged. The supernatant was precleared with protein AIG beads (Sigma-Aldrich) and incubated with the indicated antibody and protein A/G beads at 4° C. overnight. Beads were washed five times with lysis buffer and resuspended in sample buffer and analyzed by SDS-PAGE.
(§2) To identify new degradation substrates of SPOP, yeast two-hybrid screens using the full-length SPOP as bait were performed.

BRD3 = target: T5, BRD3 (human, UniProt Q15059 1-726); assay: as above
T5 construct: also called bromodomain containing 3; FLAG-BRD3
Protocol: as §1, §2

B1: SPOP, wild-type (other, human, UniProt O43791 1-374, looked up)
chain: MSRVPSPPPPAEMSSGPVAESWCYTQIKVVKFSYMWTINNFSFCREEMGEVIKSSTFSSGANDKLKWCLRVNPKGLDEESKDYLSLYLLLVSCPKSEVRAKFKFSILNAKGEETKAMESQRAYRFVQGKDWGFKKFIRRDFLLDEANGLLPDDKLTLFCEVSVVQDSVNISGQNTMNMVKVPECRLADELGGLWENSRFTDCCLCVAGQEFQAHKAILAARSPVFSAMFEHEMEESKKNRVEINDVEPEVFKEMMCFIYTGKAPNLDKMADDLLAAADKYALERLKVMCEDALCSNLSVENAAEILILADLHSADQLKTQAVDFINYHASDVLETSGWKSMVVSHPHLVAEAYRSLASAQCPFLGPPRKRLKQS
notes: also called SPOP-WT; Myc-SPOP
B1: no binding [1]; no binding [2]; no binding [3]. B1: binds (BRD2); binds (BRD3).

Source: US20210361653A1 (MAYO FOUNDATION FOR MEDICAL EDUCATION AND RESEARCH, published 2021)
